The supplement of paper PMC7877785
± gives the uncertainty stated by the source.

Test: self-splicing fitness, log relative to wild type (ln ratio); higher = more splicing; Tetrahymena group I intron in knt gene, E. coli kanamycin selection, DiMSum; sequences stand for … in CUCUCU…GGAGGGAAAAGUUAUCAGGCAUGCACCUGGUAGCUAGUCUUUAAACCAAUAGAUUGCAUCGGUUUAAAAGGCAAGACCGUCAAAUUGCGGGAAAGGGGUCAACAGCCGUUCAGUACCAAGUCUCAGGGGAAACUUUGAGAUGGCCUUGCAAAGGGUAUGGUAAUAAGCUGACGGACAUGGUCCUAACCACGCAGCCAAGUCCUAAGUCAACAGAUCUUCUGUUGAUAUGGAUGCAGUUCACAGACUAAAUGUCGGUCGGGGAAGAUGUAUUCUUCUCAUAAGAUAUAGUCGGACCUCUCCUUAAUGGGAGCUAGCGGAUGAAGUGAUGCAACACUGGAGCCGCUGGGAACUAAUUUGUAUGCGAAAGUAUAUUGAUUAGUUUUGGAGUACUCGUGGUCG
Summary of the method: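 Pooled colonies went to amplicon sequencing on an Illumina HiSeq 2500 after six replicate transformations. The plates were LB agar with 100 μg/mL carbenicillin, 50 μM IPTG and 0.2% rhamnose, with or without 25 μg/mL kanamycin, incubated overnight at 37°C or 30°C. The E. coli BL21(DE3) library had all eight P1ex-region intron nucleotides randomised, the intron placed in the knt kanamycin-resistance gene on pET-22b(+). DiMSum fitness is the error-weighted combination of replicate fold changes, kanamycin against none, normalised to wild type.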

Sequence | self-splicing fitness (ln) (30 °C) | self-splicing fitness (ln) (37 °C)
CACUAGCAAUAUUACGGUCG | -0.198 ± 0.072 | 0.007 ± 0.085
UUAAAGCAAUAUUACGACUC | -0.15 ± 0.12 | -0.0274 ± 0.15
AUGCAGCAAUAUUACGGGUG | -3.33 ± 0.14 | -1.62 ± 0.12
CGUUAGCAAUAUUACGGCGA | -1.6 ± 0.11 | -1.61 ± 0.11
CACUAGCAAUAUUACGUGUG | -3.71 ± 0.14 | -2.82 ± 0.16
AACUAGCAAUAUUACGUAGG | -2.36 ± 0.11 | -1.29 ± 0.12
ACCGAGCAAUAUUACGCAUG | -2.69 ± 0.13 | -2.47 ± 0.21
ACCGAGCAAUAUUACGGUCU | -3.36 ± 0.1 | -1.62 ± 0.092
GCUCAGCAAUAUUACGUCGU | -0.158 ± 0.057 | 0.486 ± 0.082
UACCAGCAAUAUUACGAUUG | -2.62 ± 0.084 | -1.35 ± 0.079
UACGAGCAAUAUUACGAGCA | -2.48 ± 0.16 | -0.109 ± 0.12
UUAAAGCAAUAUUACGUUAA | -0.426 ± 0.071 | 0.14 ± 0.091
AACAAGCAAUAUUACGGUUC | -2.97 ± 0.12 | -2.43 ± 0.12
CUGUAGCAAUAUUACGAGGG | -3.5 ± 0.49 | -1.14 ± 0.34
CCGUAGCAAUAUUACGAACA | -2.12 ± 0.2 | -2.26 ± 0.19
UACCAGCAAUAUUACGGCAA | -0.203 ± 0.067 | 0.462 ± 0.094
CGGGAGCAAUAUUACGAUUA |  | -3.69 ± 0.42
GAGCAGCAAUAUUACGCACA | -0.256 ± 0.21 | -0.415 ± 0.14
UGUGAGCAAUAUUACGCAUG | -1.91 ± 0.15 | -1.96 ± 0.22

Sequence | self-splicing fitness (ln) (30 °C) | self-splicing fitness (ln) (37 °C)
UGGGAGCAAUAUUACGUUUA | -2.62 ± 0.29 | -2.92 ± 0.33
CUACAGCAAUAUUACGUGCA | -3.73 ± 0.35 | -2.5 ± 0.18
GAUGAGCAAUAUUACGCCUC | -2.56 ± 0.36 | -1.01 ± 0.38
GAUUAGCAAUAUUACGGGAC | -2.53 ± 0.18 | -1.53 ± 0.14
CCUAAGCAAUAUUACGAUAU | -3.87 ± 0.32 | -2.6 ± 0.21
AUCCAGCAAUAUUACGGGUG | -1.18 ± 0.049 | -0.904 ± 0.061
AUCGAGCAAUAUUACGCGAC | -1.15 ± 0.22 | -2.55 ± 0.4
GAGCAGCAAUAUUACGUGAC | -2.38 ± 0.15 | -1.64 ± 0.15
UGGAAGCAAUAUUACGCGGU | -2.87 ± 0.17 | -2.69 ± 0.2
CAAAAGCAAUAUUACGGGGG | -3.13 ± 0.18 | -2.38 ± 0.15
GUCUAGCAAUAUUACGACGC | -0.0791 ± 0.12 | 0.364 ± 0.14
UCCUAGCAAUAUUACGAAAU | -3.19 ± 0.47 | -0.807 ± 0.42
CUCGAGCAAUAUUACGUAGA | -3.34 ± 0.21 | -1.64 ± 0.14
AACUAGCAAUAUUACGAUGA | -0.741 ± 0.079 | -0.0286 ± 0.08
UCUAAGCAAUAUUACGAAAA |  | -1.34 ± 0.29
GUUUAGCAAUAUUACGAUUA | -1.93 ± 0.16 | -1.01 ± 0.2
GGUGAGCAAUAUUACGGUUU | -2.12 ± 0.13 | -1.25 ± 0.18
CAGCAGCAAUAUUACGCGCA | -0.471 ± 0.13 | -0.346 ± 0.16
ACACAGCAAUAUUACGAACC | -2.57 ± 0.48 | -1.09 ± 0.45
